Test results as given in patent publication US20260241018A1 (BIOCYTOGEN PHARMACEUTICALS BEIJING, published 2026).

Key:
[1] = target: T1, 5T4 on NCI-H226 cells, NCI-H2030 cells and HCC827 cells (UniProt Q13641 32-420, limits assumed); assay: flow cytometry on NCI-H226 cells, Alexa Fluor 647 anti-human IgG Fc secondary antibody, MFI
T1 construct: whole, on cells
T1 sequence (looked up): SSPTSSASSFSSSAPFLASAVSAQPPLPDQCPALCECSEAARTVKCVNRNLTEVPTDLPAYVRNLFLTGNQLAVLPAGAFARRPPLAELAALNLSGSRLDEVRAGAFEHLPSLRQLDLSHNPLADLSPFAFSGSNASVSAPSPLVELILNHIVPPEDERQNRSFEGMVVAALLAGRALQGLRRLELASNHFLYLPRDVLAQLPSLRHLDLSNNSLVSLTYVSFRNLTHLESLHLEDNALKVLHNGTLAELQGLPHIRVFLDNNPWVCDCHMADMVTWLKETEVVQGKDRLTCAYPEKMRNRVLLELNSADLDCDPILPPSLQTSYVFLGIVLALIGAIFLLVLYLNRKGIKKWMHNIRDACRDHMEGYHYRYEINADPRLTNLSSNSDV
Description: NCI-H226 cells, NCI-H2030 cells or HCC827 cells were plated in a 96-well plate at a density of 2×10⁵ cells/well. Serially diluted purified anti-5T4 antibody 32G1 or the positive control PF06263507 analog-SI (maximum concentration: 20 μg/mL, 2-fold dilutions, 12 gradients) were added to each well and were incubated at 4° C. for 30 minutes. Then, after one wash with PBS, the cells were incubated with the secondary antibody Alexa Fluor® 647 anti human IgG Fcγ (Jackson ImmunoResearch Laboratories, Inc., Cat #: 109-606-170) at 4° C. for 15 minutes before flow cytometry analysis.
The cells were collected, and the mean fluorescence intensity (MFI) was determined.

[2] = target: T2, h5T4-His protein (human, UniProt Q13641 32-355, limits assumed); assay: epitope binding assay, h5T4-His captured; binder = analyte 2; competitor (analyte 1): 35B12
T2 construct: also called His-tagged human 5T4 protein; not shown: His tag
T2 sequence (looked up): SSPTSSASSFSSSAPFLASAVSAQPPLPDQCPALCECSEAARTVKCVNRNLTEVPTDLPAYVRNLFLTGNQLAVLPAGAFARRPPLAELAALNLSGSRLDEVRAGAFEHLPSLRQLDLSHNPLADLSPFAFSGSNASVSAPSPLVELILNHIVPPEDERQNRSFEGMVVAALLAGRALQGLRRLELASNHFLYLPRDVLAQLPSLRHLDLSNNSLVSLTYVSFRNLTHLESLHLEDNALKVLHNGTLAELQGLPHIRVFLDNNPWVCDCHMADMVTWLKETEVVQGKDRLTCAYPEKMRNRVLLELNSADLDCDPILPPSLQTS
Description: (§1) Epitope binding assays were performed using ForteBio Octet system to determine whether two anti-5T4 antibodies target the same or overlapping epitopes. 1×HBS-EP+buffer (10 mM 4-(2-hydroxyethyl)-1-piperazineethanesulfonic acid (HEPES), 150 mM NaCl, 3 mM ethylenediaminetetraacetic acid (EDTA) and 0.05% P20, pH7.4) diluted from HBS-EP+buffer (10×) was used as the running buffer throughout the experiment. About 50 RU of h5T4-His protein was captured at a flow rate of 10 μL/min, and 200 nM of the tested antibody was injected at a flow rate of 30 μL/min to bind the ligand. Another comparison antibody was injected under the same conditions to determine whether the binding of different antibodies interfered with each other. The binding time was 180 s for each antibody.
(§2) The binding value of each antibody was obtained using Data Analysis HT 12.0. To quantify the interference of one antibody binding to another, a binding ratio was calculated to compare each pair of antibodies. The binding ratio is defined as the binding value of the second antibody (analyte 2), divided by the binding value of the first antibody (analyte 1). […] In general, antibody pairs that interfere with each other have the same or overlapping epitopes.

[3] = target: T2, h5T4-His protein; assay: epitope binding assay, h5T4-His captured; binder = analyte 2; competitor (analyte 1): 32G8
Description: as §1, §2

[4] = target: T3, His-tagged 5T4 protein of human (h5T4, ACRO Biosystems Inc., Cat #: TPG-H52E5) (human, UniProt Q13641 32-355); assay: SPR (Biacore 8K), antibody captured on Protein A chip, His-tagged 5T4 as analyte
T3 construct: Bought protein; not shown: His tag
T3 sequence (looked up): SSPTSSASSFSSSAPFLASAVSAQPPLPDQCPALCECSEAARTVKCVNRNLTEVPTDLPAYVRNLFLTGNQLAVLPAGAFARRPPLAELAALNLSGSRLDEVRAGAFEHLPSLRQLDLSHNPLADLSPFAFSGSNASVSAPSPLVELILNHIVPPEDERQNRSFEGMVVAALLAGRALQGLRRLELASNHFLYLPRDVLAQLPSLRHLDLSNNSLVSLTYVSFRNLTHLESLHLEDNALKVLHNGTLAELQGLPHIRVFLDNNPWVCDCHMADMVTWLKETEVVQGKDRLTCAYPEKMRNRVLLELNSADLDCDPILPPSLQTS
Description: (§3) Purified anti-5T4 antibodies were diluted to 2 μg/mL and then injected into the Biacore™ 8K biosensor at 10 μL/min for about 50 seconds to achieve a desired protein density (e.g., about 50 response units (RU)). His-tagged 5T4 protein at a concentration of 200 nM was then injected at 30 μL/min for 180 seconds. Dissociation was monitored for 400 seconds. The chip was regenerated after the last injection of each titration with Glycine (pH 2.0), 30 μL/min for 30 seconds. For ISO control, an antibody targeting an irrelevant target protein was used.
(§4) As a person of ordinary skill in the art would understand, the same method with appropriate adjustments for parameters (e.g., antibody concentration) was performed for each tested antibody.

[5] = target: T4, His-tagged 5T4 protein of monkey (fas5T4, ACRO Biosystems Inc., Cat #: TPG-C52H3) (monkey, UniProt Q4R8Y9 35-355); assay: as above
T4 construct: Bought protein
T4 sequence: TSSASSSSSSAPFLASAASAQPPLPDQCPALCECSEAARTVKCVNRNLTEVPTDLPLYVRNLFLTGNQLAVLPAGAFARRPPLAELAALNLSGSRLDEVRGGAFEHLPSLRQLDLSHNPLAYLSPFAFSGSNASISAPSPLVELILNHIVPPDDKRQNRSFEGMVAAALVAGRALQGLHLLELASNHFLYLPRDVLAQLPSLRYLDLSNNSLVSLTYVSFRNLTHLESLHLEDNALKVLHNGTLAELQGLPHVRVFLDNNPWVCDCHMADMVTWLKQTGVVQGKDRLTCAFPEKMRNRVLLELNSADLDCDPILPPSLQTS
Description: as §3, §4

[6] = target: T2, h5T4-His protein; assay: epitope binding assay, h5T4-His captured; binder = analyte 2; competitor (analyte 1): 31G4
Description: as §1, §2

[7] = target: T2, h5T4-His protein; assay: epitope binding assay, h5T4-His captured; binder = analyte 2; competitor (analyte 1): 32E3
Description: as §1, §2

B1: 32G1 (antibody, V domains shown)
VH: QVQLVQSGGGLVKPGGSLRLSCVASGFTFSDYYMNWVRQAPGKGLEWISYVGTESIYTYYADTVKGRFTISRDNAKNSLYLQMNSLRAEDTALYYCARARDYNLYGMDVWGQGTTVTVSS
VL: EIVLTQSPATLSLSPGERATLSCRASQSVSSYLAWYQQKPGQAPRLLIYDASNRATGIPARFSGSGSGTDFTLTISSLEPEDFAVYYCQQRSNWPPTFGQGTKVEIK
notes: also called anti-5T4 antibody 32G1
[1]
  EC50 (read off the curve): ~0.3 µg/mL
[2]
  binding ratio: -0.02
[3]
  binding ratio: 0.82
[4]
  Kd: 368 nM
  koff: 0.0249 s⁻¹
  kon: 67700 M⁻¹ s⁻¹
[5]
  Kd: 70.1 nM
  koff: 12.3 s⁻¹
  kon: 1.75e+08 M⁻¹ s⁻¹
[6]
  binding ratio: 0.89
[7]
  binding ratio: 0.89
